Data on 1 molecule can be found in patent publication US20100330078A1 (Pfizer, published 2010).

Numbering of substitutions follows the chain as printed. Names may count otherwise.

The target in assay [1] is T1, Murine FcγRIII (murine, UniProt P08508 31-215, limits assumed).
T1 construct: Construct not described; also called mFcγRIII
T1 sequence (looked up): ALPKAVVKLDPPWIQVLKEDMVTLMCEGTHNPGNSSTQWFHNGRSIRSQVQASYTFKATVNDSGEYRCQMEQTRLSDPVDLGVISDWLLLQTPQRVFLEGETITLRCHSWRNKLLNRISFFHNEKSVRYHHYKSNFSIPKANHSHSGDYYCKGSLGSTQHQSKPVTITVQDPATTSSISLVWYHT
Briefly: Biacore. How it is done:
(§1) The ability of 22B5/DLE, which contains the IgG1 DLE triple mutations (as discussed previously in Example 2), to enhance binding to the FcγRs was evaluated in a Biacore binding experiment. The FcγR binding affinities of 22B5/DLE were compared with the binding affinity of wild type (wt) IgG1. […] The binding affinity comparison of 22B5/DLE and wild type IgG1 was also evaluated against the murine Fcγ receptors. The greatest enhancement in binding was to the mFcγRIV, followed by mFcγRI, and mFcγRIII (see FIG. 5).
On the technique in general: SPR reads the build-up and loss of mass on a sensor chip optically.

Another assay addresses T2, Murine FcγRIV (murine, UniProt A0A0B4J1G0 21-203).
T2 construct: Construct not described; also called mFcγRIV
T2 sequence: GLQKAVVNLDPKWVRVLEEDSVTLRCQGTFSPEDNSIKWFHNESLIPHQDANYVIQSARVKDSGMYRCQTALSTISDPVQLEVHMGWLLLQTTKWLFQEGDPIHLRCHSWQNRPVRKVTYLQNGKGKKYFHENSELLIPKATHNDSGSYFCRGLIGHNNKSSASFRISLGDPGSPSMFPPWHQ
The assay can be described thus: Biacore. How it is done:
as §1

The target of assay [2] is T3, Human FcγRI (human, UniProt P12314 16-288, limits assumed).
T3 construct: Construct used in Biacore is not described
Briefly: Biacore. How it is done:
as §1

In another assay the target is T4, Human FcγRIIa/131H (human, UniProt P12318 36-218, limits assumed).
T4 construct: Polymorphic variant 131H; construct not described
T4 sequence (looked up): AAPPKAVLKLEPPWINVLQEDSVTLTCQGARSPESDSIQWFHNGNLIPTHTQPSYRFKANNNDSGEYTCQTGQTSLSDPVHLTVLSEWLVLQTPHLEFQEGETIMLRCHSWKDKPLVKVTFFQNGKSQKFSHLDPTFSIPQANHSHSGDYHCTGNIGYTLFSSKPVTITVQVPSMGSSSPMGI
Briefly: Biacore. How it is done:
as §1

In assay [3] the target is T5, Human FcγRIIa/131R (human, UniProt P12318 36-218, limits assumed).
T5 construct: Polymorphic variant 131R; construct not described
T5 sequence (looked up): T4 sequence (looked up) with H132R
Briefly: Biacore. How it is done:
as §1

The target in assay [4] is T6, Human FcγRIIIa/158F (human, UniProt P08637 17-208, limits assumed).
T6 construct: also called Human FcγRIII/158F
The assay can be described thus: Biacore. How it is done: as §1

Assay [5] concerns the target T7, Human FcγRIIIa/158V (human, UniProt P08637 17-208, limits assumed).
T7 construct: also called Human FcγRIII/158V
Briefly: Biacore. How it is done:
as §1

Another assay concerns the target T8, Murine FcγRI (murine, UniProt P26151 25-297, limits assumed).
T8 construct: Construct not described; also called mFcγRI
T8 sequence (looked up): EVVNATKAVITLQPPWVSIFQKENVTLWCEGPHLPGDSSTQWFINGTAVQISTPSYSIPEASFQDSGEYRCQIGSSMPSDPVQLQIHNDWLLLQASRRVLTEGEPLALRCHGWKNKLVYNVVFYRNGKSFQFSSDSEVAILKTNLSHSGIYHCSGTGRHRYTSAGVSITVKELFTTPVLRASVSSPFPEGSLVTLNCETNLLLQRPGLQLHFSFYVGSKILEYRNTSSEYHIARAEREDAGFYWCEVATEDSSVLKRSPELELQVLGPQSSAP
The assay can be described thus: Biacore. How it is done:
as §1

The target in assay [6] is human integrin α5β1 on cells (endogenous, HUVEC; tumor or endothelial-expressed) (human, UniProt P08648 42-1049; P05556 21-798). Briefly: cell-based or functional assay.
Assay [7] concerns the target T1, Murine FcγRIII. The assay can be described thus: Biacore, KD against 22B5 wild type IgG1. How it is done: as §1
Assay [8] has as its target T3, Human FcγRI. The assay can be described thus: Biacore, KD against 22B5 wild type IgG1. How it is done: as §1
In assay [9] the target is T5, Human FcγRIIa/131R. The assay can be described thus: Biacore, KD against 22B5 wild type IgG1. How it is done: as §1
The target in assay [10] is T6, Human FcγRIIIa/158F. Briefly: Biacore, KD against 22B5 wild type IgG1. How it is done: as §1
Assay [11] has as its target T7, Human FcγRIIIa/158V. The assay can be described thus: Biacore, KD against 22B5 wild type IgG1. How it is done: as §1
Assay [12] has as its target T9, human recombinant α5β1 extracellular domain (human, UniProt P08648 42-995; P05556 21-728).
T9 construct: extracellular domain; also called α5β1 recombinant extracellular domain; extracellular domain of α5β1
Briefly: Biacore, antibody immobilised, α5β1 extracellular domain flowed, 25.0 C, 4.0 mM CaCl2. How it is done: (§2) Binding kinetics and nominal avidity of 22B5/DLE to the extracellular domain of α5β1 was determined using Biacore analysis (Biacore AB, Uppsala, Sweden). To perform BIAcore kinetic analyses, the 22B5/DLE antibody was immobilized on a biosensor chip and various concentrations of human recombinant α5β1 extracellular domain were flowed across the surface at 25.0° C. (see FIG. 3). The binding data were fit globally to a simple one-to-one binding model with drifting baseline. 22B5/DLE binds reversibly to α5β1. […] The KD was greater when measured in the absence of divalent cations, consistent with cation-dependent activation of integrin.

Assay [13] addresses T9, human recombinant α5β1 extracellular …. The assay can be described thus: Biacore, antibody immobilised, α5β1 extracellular domain flowed, 25.0 C, 4.0 mM MgCl2. How it is done:
as §2

T9 sequence (P08648 42-995, chain 1 of 2): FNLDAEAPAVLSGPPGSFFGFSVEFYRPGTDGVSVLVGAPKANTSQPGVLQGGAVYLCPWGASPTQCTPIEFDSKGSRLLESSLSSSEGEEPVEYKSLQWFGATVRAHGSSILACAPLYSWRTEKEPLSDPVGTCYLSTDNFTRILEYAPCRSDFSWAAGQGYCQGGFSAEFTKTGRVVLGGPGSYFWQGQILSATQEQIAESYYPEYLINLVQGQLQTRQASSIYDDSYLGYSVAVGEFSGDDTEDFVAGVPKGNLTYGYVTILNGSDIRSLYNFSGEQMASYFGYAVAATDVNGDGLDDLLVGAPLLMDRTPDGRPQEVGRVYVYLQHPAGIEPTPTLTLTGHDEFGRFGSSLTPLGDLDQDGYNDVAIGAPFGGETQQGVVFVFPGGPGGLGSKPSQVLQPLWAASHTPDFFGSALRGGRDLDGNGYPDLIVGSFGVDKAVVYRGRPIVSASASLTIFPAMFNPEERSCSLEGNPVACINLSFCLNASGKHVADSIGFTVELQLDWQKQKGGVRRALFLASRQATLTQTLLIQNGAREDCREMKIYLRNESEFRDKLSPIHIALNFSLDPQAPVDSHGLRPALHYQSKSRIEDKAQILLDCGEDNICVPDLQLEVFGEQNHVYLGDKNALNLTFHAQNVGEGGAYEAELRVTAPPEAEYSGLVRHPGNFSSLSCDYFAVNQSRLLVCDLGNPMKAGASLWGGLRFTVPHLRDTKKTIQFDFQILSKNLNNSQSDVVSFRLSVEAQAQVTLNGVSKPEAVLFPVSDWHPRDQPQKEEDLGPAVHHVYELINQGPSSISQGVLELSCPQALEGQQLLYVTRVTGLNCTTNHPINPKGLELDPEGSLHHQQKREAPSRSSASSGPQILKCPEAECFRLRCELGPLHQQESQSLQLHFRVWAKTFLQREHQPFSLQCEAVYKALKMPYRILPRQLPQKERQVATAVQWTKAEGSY
T9 sequence (P05556 21-728, chain 2 of 2): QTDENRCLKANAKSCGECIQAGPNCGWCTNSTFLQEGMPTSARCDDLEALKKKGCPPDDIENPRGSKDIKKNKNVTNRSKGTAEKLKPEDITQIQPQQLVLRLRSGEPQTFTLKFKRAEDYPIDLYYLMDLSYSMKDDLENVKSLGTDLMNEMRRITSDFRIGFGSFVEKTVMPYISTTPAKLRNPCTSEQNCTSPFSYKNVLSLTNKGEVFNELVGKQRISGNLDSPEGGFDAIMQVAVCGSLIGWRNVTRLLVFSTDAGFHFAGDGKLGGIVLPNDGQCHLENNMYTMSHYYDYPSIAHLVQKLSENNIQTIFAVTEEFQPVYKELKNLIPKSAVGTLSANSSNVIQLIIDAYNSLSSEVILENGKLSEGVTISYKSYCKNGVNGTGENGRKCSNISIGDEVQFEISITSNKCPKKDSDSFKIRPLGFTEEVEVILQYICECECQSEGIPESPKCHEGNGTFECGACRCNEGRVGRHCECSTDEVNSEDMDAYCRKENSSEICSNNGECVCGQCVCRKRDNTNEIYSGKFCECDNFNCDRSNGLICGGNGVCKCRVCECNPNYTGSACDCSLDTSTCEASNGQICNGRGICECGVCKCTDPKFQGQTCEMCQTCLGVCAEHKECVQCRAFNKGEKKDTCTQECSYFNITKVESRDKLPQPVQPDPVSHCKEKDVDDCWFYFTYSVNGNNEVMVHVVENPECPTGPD
T6 sequence (P08637 17-208 limits assumed): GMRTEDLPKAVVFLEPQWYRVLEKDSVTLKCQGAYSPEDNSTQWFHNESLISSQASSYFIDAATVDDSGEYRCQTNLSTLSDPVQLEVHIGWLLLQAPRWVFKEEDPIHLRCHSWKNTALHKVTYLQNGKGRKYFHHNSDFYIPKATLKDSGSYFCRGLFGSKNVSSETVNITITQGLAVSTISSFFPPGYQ
T7 sequence (P08637 17-208 F176V limits assumed): as the sequence (P08637 17-208 limits assumed) above, with F160V counted along it
T3 sequence (P12314 16-288 limits assumed): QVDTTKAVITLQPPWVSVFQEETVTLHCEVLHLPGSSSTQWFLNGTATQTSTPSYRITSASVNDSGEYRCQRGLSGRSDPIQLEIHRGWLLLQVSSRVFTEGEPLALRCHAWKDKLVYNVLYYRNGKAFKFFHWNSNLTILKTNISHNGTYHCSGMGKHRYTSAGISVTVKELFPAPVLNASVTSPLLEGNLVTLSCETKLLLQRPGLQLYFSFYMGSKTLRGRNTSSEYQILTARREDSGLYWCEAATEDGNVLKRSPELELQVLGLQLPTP
Chain of human integrin α5β1 on cells (endogenous, HUVEC; tumor or endothelial-expressed) (P08648 42-1049, chain 1 of 2): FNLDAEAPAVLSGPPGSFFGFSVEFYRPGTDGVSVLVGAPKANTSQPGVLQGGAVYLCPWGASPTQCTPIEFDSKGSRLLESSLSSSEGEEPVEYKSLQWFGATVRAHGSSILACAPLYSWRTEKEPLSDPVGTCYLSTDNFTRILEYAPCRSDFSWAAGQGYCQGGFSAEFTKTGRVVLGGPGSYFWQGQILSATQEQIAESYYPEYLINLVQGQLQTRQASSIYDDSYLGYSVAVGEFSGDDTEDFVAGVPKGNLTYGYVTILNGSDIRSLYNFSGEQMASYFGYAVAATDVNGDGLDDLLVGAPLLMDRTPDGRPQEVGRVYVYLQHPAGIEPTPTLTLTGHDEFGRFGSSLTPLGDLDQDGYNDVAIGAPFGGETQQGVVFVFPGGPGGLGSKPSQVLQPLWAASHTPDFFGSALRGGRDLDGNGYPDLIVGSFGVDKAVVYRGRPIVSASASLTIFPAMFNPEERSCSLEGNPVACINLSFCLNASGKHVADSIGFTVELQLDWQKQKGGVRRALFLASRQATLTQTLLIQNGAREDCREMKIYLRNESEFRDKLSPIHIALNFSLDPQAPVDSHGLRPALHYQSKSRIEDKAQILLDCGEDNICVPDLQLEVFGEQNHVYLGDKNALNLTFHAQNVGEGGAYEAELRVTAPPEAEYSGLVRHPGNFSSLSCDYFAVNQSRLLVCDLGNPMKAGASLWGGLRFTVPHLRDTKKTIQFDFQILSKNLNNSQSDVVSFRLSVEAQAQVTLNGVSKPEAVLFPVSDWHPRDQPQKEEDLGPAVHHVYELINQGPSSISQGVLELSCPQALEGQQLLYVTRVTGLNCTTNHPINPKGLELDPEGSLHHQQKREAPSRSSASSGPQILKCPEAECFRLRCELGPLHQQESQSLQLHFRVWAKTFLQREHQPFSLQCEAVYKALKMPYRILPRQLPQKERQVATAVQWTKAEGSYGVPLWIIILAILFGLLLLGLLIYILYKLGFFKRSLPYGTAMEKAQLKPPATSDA
Chain of human integrin α5β1 on cells (endogenous, HUVEC; tumor or endothelial-expressed) (P05556 21-798, chain 2 of 2): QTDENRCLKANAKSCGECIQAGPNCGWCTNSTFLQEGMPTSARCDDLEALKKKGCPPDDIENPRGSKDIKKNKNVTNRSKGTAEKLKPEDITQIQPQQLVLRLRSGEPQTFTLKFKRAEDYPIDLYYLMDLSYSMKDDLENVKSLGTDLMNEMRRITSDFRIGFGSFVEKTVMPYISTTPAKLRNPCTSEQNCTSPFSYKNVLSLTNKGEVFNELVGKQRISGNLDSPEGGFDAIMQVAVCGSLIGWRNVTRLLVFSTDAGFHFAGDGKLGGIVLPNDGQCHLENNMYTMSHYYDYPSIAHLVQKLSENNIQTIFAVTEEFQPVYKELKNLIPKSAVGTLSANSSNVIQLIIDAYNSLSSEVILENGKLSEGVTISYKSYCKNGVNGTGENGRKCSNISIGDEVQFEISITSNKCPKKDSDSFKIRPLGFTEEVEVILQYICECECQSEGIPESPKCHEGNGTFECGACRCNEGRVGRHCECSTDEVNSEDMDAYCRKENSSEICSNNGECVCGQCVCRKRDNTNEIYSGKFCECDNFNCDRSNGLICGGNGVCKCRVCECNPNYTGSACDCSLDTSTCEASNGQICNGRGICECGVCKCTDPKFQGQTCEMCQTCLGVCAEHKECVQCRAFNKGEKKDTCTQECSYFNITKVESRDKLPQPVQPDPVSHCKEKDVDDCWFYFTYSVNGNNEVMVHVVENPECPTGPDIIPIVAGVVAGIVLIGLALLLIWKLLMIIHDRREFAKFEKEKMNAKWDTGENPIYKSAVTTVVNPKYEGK

B1: 22B5/DLE (antibody, human IgG1, kappa)
heavy: QLQLQESGPGLVKPSETLSLTCTVSGGSISSSSYWGWIRQPPGKGLEWIGSIYYSGRNYNNPSLKSRVTISVDTSKNQFSLKLSSVTAADTAVYYCARHYYGSGSSYYYYDLDVWGQGTTVTVSSASTKGPSVFPLAPSSKSTSGGTAALGCLVKDYFPEPVTVSWNSGALTSGVHTFPAVLQSSGLYSLSSVVTVPSSSLGTQTYICNVNHKPSNTKVDKKVEPKSCDKTHTCPPCPAPELLGGPDVFLFPPKPKDTLMISRTPEVTCVVVDVSHEDPEVKFNWYVDGVEVHNAKTKPREEQYNSTYRVVSVLTVLHQDWLNGKEYKCKVSNKALPLPEEKTISKAKGQPREPQVYTLPPSREEMTKNQVSLTCLVKGFYPSDIAVEWESNGQPENNYKTTPPVLDSDGSFFLYSKLTVDKSRWQQGNVFSCSVMHEALHNHYTQKSLSLSPGK
light: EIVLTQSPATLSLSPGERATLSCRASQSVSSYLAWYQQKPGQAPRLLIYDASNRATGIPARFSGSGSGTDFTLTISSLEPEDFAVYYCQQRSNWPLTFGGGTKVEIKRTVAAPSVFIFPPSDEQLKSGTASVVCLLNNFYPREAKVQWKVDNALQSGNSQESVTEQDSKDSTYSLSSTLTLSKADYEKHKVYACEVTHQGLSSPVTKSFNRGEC
notes: Human IgG1 with Fc mutations S247D, A338L, I340E; the VH already holds the germline back-mutations I30S and N33S; also called 22B5 IgG1 DLE; 22B5 G1 DLE
As usually defined, the Kd is the constant that tells how readily two partners part at equilibrium. The term koff denotes the rate constant with which the complex falls apart. The term kon denotes the second-order rate constant of association. With B1, the Kd amounted to 1700 nM with Murine FcγRIII [1]; 9.1 nM with Murine FcγRIV; 5.8 nM with Human FcγRI [2]; 1000 nM with Human FcγRIIa/131H; 650 nM with Human FcγRIIa/131R [3]; 27 nM with Human FcγRIIIa/158F [4]. Also, the Kd in the assay with Human FcγRIIIa/158V [5] worked out at 9.4 nM; with Murine FcγRI it was 96 nM; in assay [12], 2.7 nM; in assay [13], 4.1 nM. In addition, in assay [6], the “ADCC EC50 (up to 80% target cell lysis), human PBMCs” value was found to be 0.04 nM. In addition, the “Fold enhancement over wt IgG1” value with Murine FcγRIII [7] came to 5 fold; in the assay with Human FcγRI [8], 6 fold; in the assay with Human FcγRIIa/131R [9], 2.3 fold; with Human FcγRIIIa/158F [10] it was 122 fold; with Human FcγRIIIa/158V [11], 70 fold. Moreover, the figures for the koff in assay [12] and in assay [13] were 0.0012 s⁻¹ and 0.0014 s⁻¹, respectively. Also, the results for the kon in assay [12] and in assay [13] were 450000 M⁻¹ s⁻¹ and 340000 M⁻¹ s⁻¹, respectively.
